Read-outs that look alike come from different tables or passages of the source.
T1: GST-Glmn (Glomulin) (UniProt Q92990 1-594)
T1 chain: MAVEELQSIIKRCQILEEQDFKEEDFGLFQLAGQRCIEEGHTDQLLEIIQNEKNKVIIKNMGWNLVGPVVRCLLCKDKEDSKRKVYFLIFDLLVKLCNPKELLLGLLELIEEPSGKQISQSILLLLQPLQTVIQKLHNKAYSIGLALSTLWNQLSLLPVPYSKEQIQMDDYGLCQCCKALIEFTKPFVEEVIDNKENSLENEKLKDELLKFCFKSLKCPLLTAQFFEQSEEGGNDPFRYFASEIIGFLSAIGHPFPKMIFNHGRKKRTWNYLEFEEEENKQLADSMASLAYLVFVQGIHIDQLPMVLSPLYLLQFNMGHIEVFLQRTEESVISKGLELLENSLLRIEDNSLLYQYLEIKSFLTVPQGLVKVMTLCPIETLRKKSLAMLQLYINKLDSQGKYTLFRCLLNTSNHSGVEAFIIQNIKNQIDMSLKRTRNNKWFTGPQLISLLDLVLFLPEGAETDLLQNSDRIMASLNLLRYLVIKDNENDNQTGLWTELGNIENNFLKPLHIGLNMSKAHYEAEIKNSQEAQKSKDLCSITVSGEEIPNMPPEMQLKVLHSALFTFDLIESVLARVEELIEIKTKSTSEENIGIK

T2: GST-Glmn (Glomulin) (UniProt Q92990 1-594)
T2 construct: Glomulin (Glmn); GST is detected by the anti-GST-Tb cryptate antibody in the HTRF assays; also called GST-tagged Glmn; FAP48; source: E. coli BL21(DE3), purified (glutathione beads, SEC)
T2 sequence (looked up): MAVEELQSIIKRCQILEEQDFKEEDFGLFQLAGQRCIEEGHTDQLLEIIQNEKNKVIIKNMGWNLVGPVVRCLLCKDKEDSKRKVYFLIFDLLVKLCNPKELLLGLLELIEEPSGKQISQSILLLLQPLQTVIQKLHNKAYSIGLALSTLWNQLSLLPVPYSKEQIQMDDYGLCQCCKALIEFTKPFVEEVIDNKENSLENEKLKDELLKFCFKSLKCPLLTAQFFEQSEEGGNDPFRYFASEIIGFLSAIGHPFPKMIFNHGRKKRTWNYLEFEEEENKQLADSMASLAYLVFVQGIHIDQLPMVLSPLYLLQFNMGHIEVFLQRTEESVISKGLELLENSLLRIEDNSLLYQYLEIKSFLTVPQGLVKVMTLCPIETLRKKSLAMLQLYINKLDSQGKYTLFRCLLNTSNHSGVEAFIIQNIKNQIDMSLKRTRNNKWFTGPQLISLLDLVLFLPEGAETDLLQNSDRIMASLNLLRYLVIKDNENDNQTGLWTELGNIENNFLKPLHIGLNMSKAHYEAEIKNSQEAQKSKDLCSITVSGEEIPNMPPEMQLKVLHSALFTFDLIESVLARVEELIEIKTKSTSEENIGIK


What was measured:
[1] = target: T1, GST-Glmn (Glomulin); test: FRET
[2] = target: T1, GST-Glmn (Glomulin); test: FRET
[3] = target: T1, GST-Glmn (Glomulin); test: FRET
[4] = target: T2, GST-Glmn (Glomulin); test: AlphaScreen or HTRF; competitive HTRF: unlabelled FKBP titrated against 30 nM FKBP51FK1-5-MF and 30 nM GST-Glmn with Anti GST-Tb cryptate; 20 mM HEPES, 5% glycerol, 20 mM NaCl, 10 mM DTT, pH 8.0; room temperature, 1 h; settings: both partners purified

Binder | IC50 [1] | IC50 [2] | further results
His-FKBP51FK1 (aa16-140) (domain or fragment) ATVAEQGEDITSKKDRGVLKIVKRVGNGEETPMIGDKVYVHYKGKLSNGKKFDSSHDRNEPFVFSLGKGQVIKAWDIGVATMKKGEICHLLCKPEYAYGSAGSLPKIPSNATLFFEIELLDFKGE | 372 nM | 380 nM | 
His-FKBP51FK1 (FD67/68DV) (domain or fragment) MTTDEGAKNNEESPTATVAEQGEDITSKKDRGVLKIVKRVGNGEETPMIGDKVYVHYKGKLSNGKKDVSSHDRNEPFVFSLGKGQVIKAWDIGVATMKKGEICHLLCKPEYAYGSAGSLPKIPSNATLFFEIELLDFKGE |  |  | IC50 [3]: 15600 nM
His-FKBP51FK1 (F67V) (domain or fragment) MTTDEGAKNNEESPTATVAEQGEDITSKKDRGVLKIVKRVGNGEETPMIGDKVYVHYKGKLSNGKKVDSSHDRNEPFVFSLGKGQVIKAWDIGVATMKKGEICHLLCKPEYAYGSAGSLPKIPSNATLFFEIELLDFKGE |  | 880 nM | 
His-FKBP51FK1 (1-140) (domain or fragment) MTTDEGAKNNEESPTATVAEQGEDITSKKDRGVLKIVKRVGNGEETPMIGDKVYVHYKGKLSNGKKFDSSHDRNEPFVFSLGKGQVIKAWDIGVATMKKGEICHLLCKPEYAYGSAGSLPKIPSNATLFFEIELLDFKGE |  | 383 nM | 
His-FKBP52FK1 (domain or fragment) GDRVFVHYTGWLLDGTKFDSSLDRKDKFSFDLGKGEVIKAWDIAIATMKVGEVCHITCKPEYAYGSAGSPPKIPPNATLVFEVELFEFK | 362 nM |  | 
His-FKBP52-Strep (full length) (natural protein, UniProt Q02790 1-459, looked up, FKBP52, full length; in pProEx-HTA, used as previously described; also called FKBP52FL; full-length FKBP52; source: E. coli BL21(DE3), purified (Ni-NTA, SEC)) MTAEEMKATESGAQSAPLPMEGVDISPKQDEGVLKVIKREGTGTEMPMIGDRVFVHYTGWLLDGTKFDSSLDRKDKFSFDLGKGEVIKAWDIAIATMKVGEVCHITCKPEYAYGSAGSPPKIPPNATLVFEVELFEFKGEDLTEEEDGGIIRRIQTRGEGYAKPNEGAIVEVALEGYYKDKLFDQRELRFEIGEGENLDLPYGLERAIQRMEKGEHSIVYLKPSYAFGSVGKEKFQIPPNAELKYELHLKSFEKAKESWEMNSEEKLEQSTIVKERGTVYFKEGKYKQALLQYKKIVSWLEYESSFSNEEAQKAQALRLASHLNLAMCHLKLQAFSAAIESCNKALELDSNNEKGLFRRGEAHLAVNDFELARADFQKVLQLYPNNKAAKTQLAVCQQRIRRQLAREKKLYANMFERLAEEENKAKAEASSGDHPTDTEMKEEQKSNTAGSQSQVETEA |  |  | fold better competition than its FK1 domain [4]: ~19 fold
His-FKBP51-Strep (full length) (natural protein, UniProt Q13451 1-457, looked up, FKBP51, full length; in pProEx-HTA, used as previously described; also called FKBP51FL; full-length FKBP51; source: E. coli BL21(DE3), purified (Ni-NTA, SEC)) MTTDEGAKNNEESPTATVAEQGEDITSKKDRGVLKIVKRVGNGEETPMIGDKVYVHYKGKLSNGKKFDSSHDRNEPFVFSLGKGQVIKAWDIGVATMKKGEICHLLCKPEYAYGSAGSLPKIPSNATLFFEIELLDFKGEDLFEDGGIIRRTKRKGEGYSNPNEGATVEIHLEGRCGGRMFDCRDVAFTVGEGEDHDIPIGIDKALEKMQREEQCILYLGPRYGFGEAGKPKFGIEPNAELIYEVTLKSFEKAKESWEMDTKEKLEQAAIVKEKGTVYFKGGKYMQAVIQYGKIVSWLEMEYGLSEKESKASESFLLAAFLNLAMCYLKLREYTKAVECCDKALGLDSANEKGLYRRGEAQLLMNEFESAKGDFEKVLEVNPQNKAARLQISMCQKKAKEHNERDRRIYANMFKKFAEQDAKEEANKAMGKKTSEGVTNEKGTDSQAMEEEKPEGHV | 96 nM |  | fold difference in competition between full-length protein and the isolated FK506-binding domain [4]: 4 fold

Reference: paper PMC6730887, “FKBP51 and FKBP12.6—Novel and tight interactors of Glomulin” (PLoS ONE, 2019)
